Measured values published in the RNAGym collection of RNA variant scans (doi:10.7554/elife.90254).

B1: LINE1-full (parent)
chain: UACGUAGGUGGUUUUCCCCUGAUAGUGCUAAGGGGGCCUGGAAGUUUGGACUGGGCAGAGCUCAACACAGCGUGGCAAAGUGGCUGUGGCUAGACUGCCUCUCUGGAUUCCUCGUCACUCAGCAGGGCAUCUCUGAGAGAAAUGCC

Variants of: B1
Assay: self-cleavage, relative activity (ratio to wild type); higher = more cleavage; in vitro, sequencing; the parent is a self-cleaving ribozyme

Q: For C3U U109A, which self-cleavage is on record?
A: 0.93

Q: Which self-cleavage does the source give for A2G C71G here?
A: 0.42

Q: Which self-cleavage does the source give for A2G A77U here?
A: 0.79

Q: With C3A U52G as the variant, how does the self-cleavage read?
A: 1.31

Q: For A2U A67C, which self-cleavage is on record?
A: 0.12

Q: With A2U A67U as the variant, how does the self-cleavage read?
A: 0.05

Q: For A2G U46C, which self-cleavage is on record?
A: 0.72

Q: With A2G U46A as the variant, how does the self-cleavage read?
A: 0.3

Q: Which self-cleavage does the source give for U1C G114C here?
A: 2.19

Q: For A2G U39C, which self-cleavage is on record?
A: 0.32

Q: With A2G G32A as the variant, how does the self-cleavage read?
A: 0

Q: Which self-cleavage does the source give for A2G G44U here?
A: 0.87

Q: For A2G U91C, which self-cleavage is on record?
A: 0.45

Q: With A2G A141U as the variant, how does the self-cleavage read?
A: 0.24

Q: For G4A A77G, which self-cleavage is on record?
A: 1.68

Q: Which self-cleavage does the source give for A2G U132C here?
A: 1.04

Q: For G4A C98A, which self-cleavage is on record?
A: 0.19

Q: Which self-cleavage does the source give for U1C G25A here?
A: 0.72

Q: Which self-cleavage does the source give for U1C A57G here?
A: 0.56

Q: For C3A U104A, which self-cleavage is on record?
A: 0.7

Q: With A2U A92U as the variant, how does the self-cleavage read?
A: 0.32

Q: With U1C C38A as the variant, how does the self-cleavage read?
A: 0.55

Q: For U1C C38U, which self-cleavage is on record?
A: 0.71

Q: Which self-cleavage does the source give for U1C A94G here?
A: 0.24

Q: With C3U A94G as the variant, how does the self-cleavage read?
A: 0.54

Q: With C3U U5C as the variant, how does the self-cleavage read?
A: 1.16

Q: For U1C A142G, which self-cleavage is on record?
A: 0.99

Q: With G4A A141G as the variant, how does the self-cleavage read?
A: 0.89

Q: With A2G A65U as the variant, how does the self-cleavage read?
A: 0.66

Q: With A2G A65G as the variant, how does the self-cleavage read?
A: 0.2

Q: For A2G G72A, which self-cleavage is on record?
A: 1.15

Q: With A2G G72U as the variant, how does the self-cleavage read?
A: 0.53

Q: For U1G, which self-cleavage is on record?
A: 0.87

Q: Which self-cleavage does the source give for U1C here?
A: 0.86

Q: With A2C G4U as the variant, how does the self-cleavage read?
A: 1.34

Q: Which self-cleavage does the source give for C3U U14C here?
A: 0.81

Q: With A2U U52A as the variant, how does the self-cleavage read?
A: 0.92

Q: With C3U A50U as the variant, how does the self-cleavage read?
A: 0.58

Q: Which self-cleavage does the source give for U1C G36C here?
A: 1.26

Q: For U1C U102A, which self-cleavage is on record?
A: 0.25

Q: With C3A U73A as the variant, how does the self-cleavage read?
A: 0.64

Q: With C3A U134C as the variant, how does the self-cleavage read?
A: 0.92

Q: With A2G A67G as the variant, how does the self-cleavage read?
A: 0.41

Q: Which self-cleavage does the source give for A2G A67U here?
A: 0.18

Q: With A2U U46A as the variant, how does the self-cleavage read?
A: 0.51

Q: With U1C U12C as the variant, how does the self-cleavage read?
A: 0.78

Q: With U1C U12G as the variant, how does the self-cleavage read?
A: 0.84

Q: For U1C A136U, which self-cleavage is on record?
A: 1.15

Q: For A2G U9C, which self-cleavage is on record?
A: 0.83

Q: With A2G C28U as the variant, how does the self-cleavage read?
A: 0.72

Q: For C3U A136G, which self-cleavage is on record?
A: 1.08

Q: Which self-cleavage does the source give for A2G G35A here?
A: 1.2

Q: For A2U C113A, which self-cleavage is on record?
A: 0.63

Q: With A2G A64U as the variant, how does the self-cleavage read?
A: 0.88

Q: Which self-cleavage does the source give for A2G A64C here?
A: 0.59

Q: For A2G A64G, which self-cleavage is on record?
A: 0.39

Q: Which self-cleavage does the source give for U1C C113A here?
A: 0.62

Q: Which self-cleavage does the source give for A2C U119C here?
A: 0.89

Q: With A2G C3U as the variant, how does the self-cleavage read?
A: 0.65

Q: Which self-cleavage does the source give for C3U A43G here?
A: 0.95

Q: With U1C U100C as the variant, how does the self-cleavage read?
A: 1.2

Q: With C3U C111U as the variant, how does the self-cleavage read?
A: 0.65

Q: With C3U U62C as the variant, how does the self-cleavage read?
A: 0.15

Q: For C3U U29A, which self-cleavage is on record?
A: 1.07

Q: With A2U A65U as the variant, how does the self-cleavage read?
A: 0.23

Q: Which self-cleavage does the source give for U1C U143C here?
A: 1.18

Q: For U1C U87C, which self-cleavage is on record?
A: 0.1

Q: For C3U U47A, which self-cleavage is on record?
A: 0.67

Q: With C3U A22U as the variant, how does the self-cleavage read?
A: 0.99

Q: For C3U A22G, which self-cleavage is on record?
A: 0.95

Q: Which self-cleavage does the source give for C3U U134C here?
A: 1.05

Q: Which self-cleavage does the source give for A2U U96C here?
A: 0.31

Q: Which self-cleavage does the source give for A2C G93A here?
A: 0.03

Q: For U1C A67G, which self-cleavage is on record?
A: 0.41

Q: Which self-cleavage does the source give for U1C G82A here?
A: 1.3

Q: Which self-cleavage does the source give for U1C U115C here?
A: 1.19

Q: Which self-cleavage does the source give for U1A U112C here?
A: 1.03

Q: For C3U G93A, which self-cleavage is on record?
A: 0

Q: With A2G U109A as the variant, how does the self-cleavage read?
A: 0.65

Q: Which self-cleavage does the source give for U1C A79G here?
A: 0.86

Q: For U1C U47C, which self-cleavage is on record?
A: 0.97

Q: For U1C U47A, which self-cleavage is on record?
A: 0.6

Q: With C3U G41A as the variant, how does the self-cleavage read?
A: 2.76

Q: For A2G A94U, which self-cleavage is on record?
A: 0.29

Q: Which self-cleavage does the source give for A2G A94G here?
A: 0.25

Q: For A2U U132C, which self-cleavage is on record?
A: 1.09

Q: Which self-cleavage does the source give for C3U here?
A: 0.83

Q: With C3G as the variant, how does the self-cleavage read?
A: 1.34

Q: Which self-cleavage does the source give for C3A here?
A: 0.69

Q: Which self-cleavage does the source give for U1C A140G here?
A: 0.99

Q: For A2G U62G, which self-cleavage is on record?
A: 0.37

Q: Which self-cleavage does the source give for A2G A24U here?
A: 1.34

Q: Which self-cleavage does the source give for A2C A140G here?
A: 1.28

Q: With A2C A50U as the variant, how does the self-cleavage read?
A: 0.75

Q: Which self-cleavage does the source give for A2U A142G here?
A: 1.15

Q: Which self-cleavage does the source give for A2U C76U here?
A: 1.07

Q: With U1C U52A as the variant, how does the self-cleavage read?
A: 0.88

Q: Which self-cleavage does the source give for U1C U108C here?
A: 0.67

Q: For U1C U62A, which self-cleavage is on record?
A: 0.05

Q: With U1C U62C as the variant, how does the self-cleavage read?
A: 0.12

Q: Which self-cleavage does the source give for G4A A121C here?
A: 1.72

Q: Which self-cleavage does the source give for G4A A121U here?
A: 1.22

Q: Which self-cleavage does the source give for A2U U112C here?
A: 1.4

Q: With C3U A30G as the variant, how does the self-cleavage read?
A: 1.75

Q: Which self-cleavage does the source give for U1C A50G here?
A: 0.64

Q: For A2U A30G, which self-cleavage is on record?
A: 1.2

Q: With C3A U87A as the variant, how does the self-cleavage read?
A: 0.1

Q: Which self-cleavage does the source give for G4A A136G here?
A: 0.86

Q: Which self-cleavage does the source give for A2G G36U here?
A: 0.67

Q: For U1C G83A, which self-cleavage is on record?
A: 0.74

Q: With C3U A78G as the variant, how does the self-cleavage read?
A: 0.37

Q: Which self-cleavage does the source give for A2U A79U here?
A: 1.37

Q: Which self-cleavage does the source give for U1C G4U here?
A: 0.78

Q: For A2C G89A, which self-cleavage is on record?
A: 0.05

Q: With G4A A65G as the variant, how does the self-cleavage read?
A: 0

Q: Which self-cleavage does the source give for A2G A57U here?
A: 0.38

Q: For U1G A64G, which self-cleavage is on record?
A: 0.46

Q: With A2G G106U as the variant, how does the self-cleavage read?
A: 1.04

Q: With U1G G80A as the variant, how does the self-cleavage read?
A: 0.75

Q: Which self-cleavage does the source give for U1A U143A here?
A: 1.04

Q: For U1C A77G, which self-cleavage is on record?
A: 1.32

Q: Which self-cleavage does the source give for A2U U12C here?
A: 0.64

Q: For U1C U85A, which self-cleavage is on record?
A: 0.03

Q: Which self-cleavage does the source give for U1C U85G here?
A: 0.08

Q: With A2U A64G as the variant, how does the self-cleavage read?
A: 0.23

Q: Which self-cleavage does the source give for A2U U15C here?
A: 1.19

Q: For G4A A79G, which self-cleavage is on record?
A: 1.3

Q: With G4A A79U as the variant, how does the self-cleavage read?
A: 0.64

Q: Which self-cleavage does the source give for C3U A6U here?
A: 0.2

Q: For U1C U39C, which self-cleavage is on record?
A: 0.95

Q: With A2U U85A as the variant, how does the self-cleavage read?
A: 0.04

Q: For U1C A69G, which self-cleavage is on record?
A: 0.42

Q: For U1C A69U, which self-cleavage is on record?
A: 0.04

Q: For U1C A69C, which self-cleavage is on record?
A: 0.07

Q: Which self-cleavage does the source give for U1C C128A here?
A: 0.79

Q: Which self-cleavage does the source give for A2C U85G here?
A: 0.16

Q: With C3A A121G as the variant, how does the self-cleavage read?
A: 0.53

Q: For U1C A2G, which self-cleavage is on record?
A: 0.72

Q: Which self-cleavage does the source give for C3U C113A here?
A: 1.15

Q: With U1C A138G as the variant, how does the self-cleavage read?
A: 0.7

Q: For C3A A142G, which self-cleavage is on record?
A: 0.82

Q: With U1C A31C as the variant, how does the self-cleavage read?
A: 1.33

Q: With A2G A30G as the variant, how does the self-cleavage read?
A: 0.87

Q: For A2C U143A, which self-cleavage is on record?
A: 1.85

Q: With A2U C16U as the variant, how does the self-cleavage read?
A: 0.32

Q: For C3A A77G, which self-cleavage is on record?
A: 1.17

Q: Which self-cleavage does the source give for A2G A138G here?
A: 0.98

Q: Which self-cleavage does the source give for A2G A138U here?
A: 0.69

Q: Which self-cleavage does the source give for A2G C19A here?
A: 1.24

Q: Which self-cleavage does the source give for A2G U5C here?
A: 1.41

Q: For C3U U9C, which self-cleavage is on record?
A: 1.53

Q: With C3A G55C as the variant, how does the self-cleavage read?
A: 0.07

Q: For C3U G60U, which self-cleavage is on record?
A: 0.07

Q: For A2G U96A, which self-cleavage is on record?
A: 0.22

Q: For U1C G7A, which self-cleavage is on record?
A: 0.7

Q: With U1A U108C as the variant, how does the self-cleavage read?
A: 0.77

Q: With A2G A79G as the variant, how does the self-cleavage read?
A: 0.87

Q: With U1C U29C as the variant, how does the self-cleavage read?
A: 1.1

Q: Which self-cleavage does the source give for A2G A22G here?
A: 0.97

Q: For A2G A22U, which self-cleavage is on record?
A: 0.19

Q: For U1C G10A, which self-cleavage is on record?
A: 0.95

Q: Which self-cleavage does the source give for C3U A121U here?
A: 1.41

Q: For U1G U132C, which self-cleavage is on record?
A: 1.36

Q: For A2U U14C, which self-cleavage is on record?
A: 0.83

Q: Which self-cleavage does the source give for C3U U85A here?
A: 0.28

Q: Which self-cleavage does the source give for U1G U52C here?
A: 2.63

Q: With U1C C19U as the variant, how does the self-cleavage read?
A: 0.66
